Data published in patent US20110274694.

Target: purified Gβγ (G-protein βγ-subunits)

B1: His6-Erk2 (purified, wild-type) (protein)
chain: MAAAAAAGPEMVRGQVFDVGPRYTNLSYIGEGAYGMVCSAYDNLNKVRVAIKKISPFEHQTYCQRTLREIKILLRFRHENIIGINDIIRAPTIEQMKDVYIVQDLMETDLYKLLKTQHLSNDHICYFLYQILRGLKYIHSANVLHRDLKPSNLLLNTTCDLKICDFGLARVADPDHDHTGFLTEYVATRWYRAPEIMLNSKGYTKSIDIWSVGCILAEMLSNRPIFPGKHYLDQLNHILGILGSPSQEDLNCIINLKARNYLLSLPHKNKVPWNRLFPNADSKALDLLDKMLTFNPHKRIEVEQALAHPYLEQYYDPSDEPIAEAPFKFDMELDDLPKEKLKELIFEETARFQPGYRS
In the case of B1, the “phosphorylation of Erk2 ([32P]-autoradiography)” value is reported as “caused increased phosphorylation of Erk2 to an extent similar to that caused by Mek*”.
